Measurements taken from patent US6764680.

Columns and labels:
[1] = target: rabbit antiserum against CTP37, rabbit # 4164; test: competition immunoassay, peptide competitor against rabbit antiserum 4164; legend: ++ = ED 50 < 250 ng
[2] = target: rabbit antiserum against COMBINED LOOP + CTP37, rabbit # 4166; test: competition immunoassay, peptide competitor against rabbit antiserum 4166; legend: ++ = ED 50 < 250 ng
[3] = target: rabbit antiserum against COMBINED LOOP + CTP37, rabbit # 4165; test: competition immunoassay, peptide competitor against rabbit antiserum 4165; legend: ++ = ED 50 < 250 ng
[4] = target: rabbit antiserum against COMBINED LOOP + CTP37, rabbit # 4173; test: competition immunoassay, peptide competitor against rabbit antiserum 4173; legend: ++ = ED 50 < 250 ng

Measured: ED50

B1: hCG-CTP21 (residues 130-150 of the beta subunit of hCG) (peptide)
peptide: CDDPRFQDSSSSKAPPPSLPS
10 to 250 ng: all assays above
